Assay results reported in publication PMC4146490 (Nature communications, 2014).

B1: DAZ associated protein 1 (DAZAP1), full length, recombinant (natural protein, human, UniProt Q96EP5 1-407, looked up)
chain: MNNSGADEIGKLFVGGLDWSTTQETLRSYFSQYGEVVDCVIMKDKTTNQSRGFGFVKFKDPNCVGTVLASRPHTLDGRNIDPKPCTPRGMQPERTRPKEGWQKGPRSDNSKSNKIFVGGIPHNCGETELREYFKKFGVVTEVVMIYDAEKQRPRGFGFITFEDEQSVDQAVNMHFHDIMGKKVEVKRAEPRDSKSQAPGQPGASQWGSRVVPNAANGWAGQPPPTWQQGYGPQGMWVPAGQAIGGYGPPPAGRGAPPPPPPFTSYIVSTPPGGFPPPQGFPQGYGAPPQFSFGYGPPPPPPDQFAPPGVPPPPATPGAAPLAFPPPPSQAAPDMSKPPTAQPDFPYGQYAGYGQDLSGFGQGFSDPSQQPPSYGGPSVPGSGGPPAGGSGFGRGQNHNVQGFHPYRR
B2: hnRNP A0, full length, recombinant (natural protein, UniProt Q13151 1-305, looked up)
chain: MENSQLCKLFIGGLNVQTSESGLRGHFEAFGTLTDCVVVVNPQTKRSRCFGFVTYSNVEEADAAMAASPHAVDGNTVELKRAVSREDSARPGAHAKVKKLFVGGLKGDVAEGDLIEHFSQFGTVEKAEIIADKQSGKKRGFGFVYFQNHDAADKAAVVKFHPIQGHRVEVKKAVPKEDIYSGGGGGGSRSSRGGRGGRGRGGGRDQNGLSKGGGGGYNSYGGYGGGGGGGYNAYGGGGGGSSYGGSDYGNGFGGFGSYSQHQSSYGPMKSGGGGGGGGSSWGGRSNSGPYRGGYGGGGGYGGSSF

What was measured:
[1] = biological target: B2; experiment: ITC
[2] = biological target: B1; experiment: ITC

Binder | stoichiometry N [1] | binding result [2]
B1 | 1 | –
hnRNP A2, full length, recombinant (natural protein, UniProt P22626-2 1-341, looked up) MEREKEQFRKLFIGGLSFETTEESLRNYYEQWGKLTDCVVMRDPASKRSRGFGFVTFSSMAEVDAAMAARPHSIDGRVVEPKRAVAREESGKPGAHVTVKKLFVGGIKEDTEEHHLRDYFEEYGKIDTIEIITDRQSGKKRGFGFVTFDDHDPVDKIVLQKYHTINGHNAEVRKALSRQEMQEVQSSRSGRGGNFGFGDSRGGGGNFGPGPGSNFRGGSDGYGSGRGFGDGYNGYGGGPGGGNFGGSPGYGGGRGGYGGGGPGYGNQGGGYGGGYDNYGGGNYGSGNYNDFGNYNQQPSNYGPMKSGNFGGSRNMGGPYGGGNYGPGGSGGSGGYGGRSRY | – | binds
B2 | – | binds
